Earlier results as cited in patent publication US20150290107A1, “COMPOSITIONS FOR TREATMENT OF XEROSTOMIA AND FOR TOOTH TREATMENT” (3 IN 1 DENTAL PLLC, priority 2013, published 2015).

Tested on: lean meat
Conditions: usual grade

B1: Papain (protein, UniProt P00784 134-345, looked up)
Papain: IPEYVDWRQKGAVTPVKNQGSCGSCWAFSAVVTIEGIIKIRTGNLNEYSEQELLDCDRRSYGCNGGYPWSALQLVAQYGIHYRNTYPYEGVQRYCRSREKGPYAAKTDGVRQVQPYNEGALLYSIANQPVSVVLEAAGKDFQLYRGGIFVGPCGNKVDHAVAAVGYGPNYILIKNSWGTGWGENGYIRIKRGTGNSYGVCGLYTSSFYPVKN
notes: Protease enzyme; white or grayish-white, slightly hygroscopic powder
potency: digesting times its weight of lean meat: ~35 times its weight
